Usually Kd stands for a measure of binding affinity in units of concentration. The low end stands for tighter binding, the high end for weaker binding.

Test [1] deals with T1, chicken ovalbumin (chicken, UniProt P01012).
T1 chain: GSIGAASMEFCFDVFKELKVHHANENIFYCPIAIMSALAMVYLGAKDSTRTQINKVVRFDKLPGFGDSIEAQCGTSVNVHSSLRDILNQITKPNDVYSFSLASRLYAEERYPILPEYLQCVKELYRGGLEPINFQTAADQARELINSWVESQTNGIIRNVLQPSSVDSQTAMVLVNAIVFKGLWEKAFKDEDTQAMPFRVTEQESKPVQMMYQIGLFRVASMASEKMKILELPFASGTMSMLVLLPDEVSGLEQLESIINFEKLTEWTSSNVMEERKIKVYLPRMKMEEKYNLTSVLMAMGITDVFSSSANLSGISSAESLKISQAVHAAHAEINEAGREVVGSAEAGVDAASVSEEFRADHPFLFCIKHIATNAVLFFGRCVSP
Briefly: FP, PBS pH 7.4.

A further test addresses T2, rabbit serum albumin (rabbit, UniProt P49065).
T2 chain: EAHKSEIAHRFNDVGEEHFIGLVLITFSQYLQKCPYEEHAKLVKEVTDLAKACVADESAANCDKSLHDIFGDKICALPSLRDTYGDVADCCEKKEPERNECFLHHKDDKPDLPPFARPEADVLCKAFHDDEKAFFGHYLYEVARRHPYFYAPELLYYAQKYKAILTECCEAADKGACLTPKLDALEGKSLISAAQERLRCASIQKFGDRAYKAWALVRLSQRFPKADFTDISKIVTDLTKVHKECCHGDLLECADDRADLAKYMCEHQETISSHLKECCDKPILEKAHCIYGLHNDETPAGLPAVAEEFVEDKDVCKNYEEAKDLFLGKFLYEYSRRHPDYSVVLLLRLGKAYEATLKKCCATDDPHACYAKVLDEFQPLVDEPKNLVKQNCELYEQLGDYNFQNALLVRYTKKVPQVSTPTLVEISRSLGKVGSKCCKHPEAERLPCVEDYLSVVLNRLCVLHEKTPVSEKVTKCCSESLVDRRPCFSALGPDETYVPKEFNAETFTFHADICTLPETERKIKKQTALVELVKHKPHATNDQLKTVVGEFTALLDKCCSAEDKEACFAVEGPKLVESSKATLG
Briefly: FP, pH 6.2, no NaCl.

A further test concerns the target T3, pig serum albumin (pig, UniProt P08835).
T3 chain: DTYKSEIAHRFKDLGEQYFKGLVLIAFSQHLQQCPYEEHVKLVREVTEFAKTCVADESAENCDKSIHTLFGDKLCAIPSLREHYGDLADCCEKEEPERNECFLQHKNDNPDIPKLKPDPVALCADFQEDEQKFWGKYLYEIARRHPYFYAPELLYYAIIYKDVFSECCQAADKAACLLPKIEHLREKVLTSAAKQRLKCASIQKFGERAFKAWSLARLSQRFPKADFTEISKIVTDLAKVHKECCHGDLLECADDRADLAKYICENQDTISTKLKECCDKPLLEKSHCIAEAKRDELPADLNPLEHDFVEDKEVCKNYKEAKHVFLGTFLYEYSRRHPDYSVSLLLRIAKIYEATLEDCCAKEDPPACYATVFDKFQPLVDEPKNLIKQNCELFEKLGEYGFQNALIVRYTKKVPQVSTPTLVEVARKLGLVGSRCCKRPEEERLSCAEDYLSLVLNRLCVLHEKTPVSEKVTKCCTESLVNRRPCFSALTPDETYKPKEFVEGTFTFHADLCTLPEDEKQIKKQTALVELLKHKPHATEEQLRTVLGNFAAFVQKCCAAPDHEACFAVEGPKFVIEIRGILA
Briefly: FP, pH 6.2, no NaCl.

The target in test [2] is T1, chicken ovalbumin. Briefly: FP, pH 6.2, no NaCl.

Bridges are numbered along the chain shown (N, C = ends).

Take Ac-AEGTGDFWFCDRIAWYPQHLCEFLDPEGGGK(fluorescein)-NH2 (disulfide 10-21 (inferred)) [DX-236]: the equilibrium dissociation constant (Kd) was greater than 200000 nM in the test with chicken ovalbumin [1], 500 nM in the test with rabbit serum albumin, 500 nM in the test with pig serum albumin and greater than 200000 nM with chicken ovalbumin [2].
